# Measured values published in article PMC12820563, “FoxP3 forms a head-to-head dimer in vivo and stabilizes its multimerization on adjacent microsatellites”.
# T1: MBP-FoxP3dN;NFAT1 DBD (Mus musculus;Mus musculus?, UniProt Q99JB6;Q60591 188-423;394-680, |)
# T1 sequence 1: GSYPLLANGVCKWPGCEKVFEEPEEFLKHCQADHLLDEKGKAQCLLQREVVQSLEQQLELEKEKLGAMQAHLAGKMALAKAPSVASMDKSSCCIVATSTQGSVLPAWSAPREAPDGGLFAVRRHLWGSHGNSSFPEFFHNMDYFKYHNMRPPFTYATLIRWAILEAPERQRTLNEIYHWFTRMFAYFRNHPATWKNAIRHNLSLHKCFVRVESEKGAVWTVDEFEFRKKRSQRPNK
# T1 sequence 2: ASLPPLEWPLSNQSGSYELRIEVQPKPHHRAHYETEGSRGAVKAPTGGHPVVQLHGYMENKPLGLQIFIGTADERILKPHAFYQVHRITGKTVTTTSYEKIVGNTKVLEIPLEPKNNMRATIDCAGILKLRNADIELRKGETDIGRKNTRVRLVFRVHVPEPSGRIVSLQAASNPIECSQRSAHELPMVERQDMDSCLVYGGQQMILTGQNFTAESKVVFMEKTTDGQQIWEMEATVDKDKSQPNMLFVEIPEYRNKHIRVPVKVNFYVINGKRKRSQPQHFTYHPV
# T2: MBP-FoxP3dN (Mus musculus, UniProt Q99JB6 188-423)
# T2 sequence: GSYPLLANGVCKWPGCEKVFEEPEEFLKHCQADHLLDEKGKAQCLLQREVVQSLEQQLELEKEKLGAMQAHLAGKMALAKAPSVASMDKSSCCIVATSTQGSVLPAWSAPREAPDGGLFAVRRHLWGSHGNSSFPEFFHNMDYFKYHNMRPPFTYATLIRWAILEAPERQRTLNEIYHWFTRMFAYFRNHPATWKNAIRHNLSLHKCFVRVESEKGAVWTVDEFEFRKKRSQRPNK
# T3: FoxP3 RBR-FKH;NFAT1 DBD (Mus musculus;Mus musculus?, UniProt Q99JB6;Q60591 284-423;394-680, |)
# T3 sequence 1: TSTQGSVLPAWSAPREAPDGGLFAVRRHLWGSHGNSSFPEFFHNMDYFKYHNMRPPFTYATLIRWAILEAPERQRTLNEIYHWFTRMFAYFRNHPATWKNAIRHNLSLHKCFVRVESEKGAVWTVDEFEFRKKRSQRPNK
# T3 sequence 2: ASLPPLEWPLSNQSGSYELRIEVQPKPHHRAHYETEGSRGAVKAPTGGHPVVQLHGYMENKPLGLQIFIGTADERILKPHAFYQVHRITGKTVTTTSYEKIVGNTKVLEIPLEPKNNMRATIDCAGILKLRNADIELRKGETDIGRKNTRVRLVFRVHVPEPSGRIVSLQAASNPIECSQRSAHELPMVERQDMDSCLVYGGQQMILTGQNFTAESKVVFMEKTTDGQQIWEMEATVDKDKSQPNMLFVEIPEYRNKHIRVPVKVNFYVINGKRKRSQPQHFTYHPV
# T4: FoxP1 RBR-FKH;NFAT1 DBD (Mus musculus;Mus musculus?, UniProt P58462;Q60591 427-579;394-680, |)
# T4 sequence 1: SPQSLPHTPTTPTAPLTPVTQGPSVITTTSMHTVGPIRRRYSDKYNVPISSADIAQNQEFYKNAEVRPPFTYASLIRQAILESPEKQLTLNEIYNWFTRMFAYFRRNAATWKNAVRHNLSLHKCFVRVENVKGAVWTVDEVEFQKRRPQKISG
# T4 sequence 2: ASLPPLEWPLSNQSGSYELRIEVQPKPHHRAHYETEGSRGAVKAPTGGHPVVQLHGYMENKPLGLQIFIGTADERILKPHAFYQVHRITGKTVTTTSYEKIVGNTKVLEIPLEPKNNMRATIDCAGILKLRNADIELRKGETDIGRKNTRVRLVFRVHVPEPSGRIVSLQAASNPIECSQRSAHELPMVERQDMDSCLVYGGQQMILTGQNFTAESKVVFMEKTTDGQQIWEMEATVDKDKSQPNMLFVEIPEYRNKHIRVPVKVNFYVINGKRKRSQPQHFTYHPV
# T5: FoxP1RBR-FoxP3FKH;NFAT1 DBD (Mus musculus;Mus musculus?, UniProt P58462;Q60591 427-492+Q99JB6:337-423;394-680, internal_change|)
# T5 sequence 1: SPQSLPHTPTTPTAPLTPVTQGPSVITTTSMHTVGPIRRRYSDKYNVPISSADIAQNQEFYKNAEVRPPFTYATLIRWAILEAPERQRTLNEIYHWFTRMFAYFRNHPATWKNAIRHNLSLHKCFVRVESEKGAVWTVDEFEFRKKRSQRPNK
# T5 sequence 2: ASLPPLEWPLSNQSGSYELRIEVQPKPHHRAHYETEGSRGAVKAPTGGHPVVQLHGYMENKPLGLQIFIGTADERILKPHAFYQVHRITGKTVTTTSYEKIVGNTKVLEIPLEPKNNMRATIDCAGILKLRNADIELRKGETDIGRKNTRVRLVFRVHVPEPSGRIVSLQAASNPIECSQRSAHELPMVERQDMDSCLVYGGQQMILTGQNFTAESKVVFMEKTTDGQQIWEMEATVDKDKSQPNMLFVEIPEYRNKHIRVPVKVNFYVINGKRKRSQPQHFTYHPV
# T6: FoxP3RBR-FoxP1FKH;NFAT1 DBD (Mus musculus;Mus musculus?, UniProt Q99JB6;Q60591 284-336+P58462:493-579;394-680, internal_change|)
# T6 sequence 1: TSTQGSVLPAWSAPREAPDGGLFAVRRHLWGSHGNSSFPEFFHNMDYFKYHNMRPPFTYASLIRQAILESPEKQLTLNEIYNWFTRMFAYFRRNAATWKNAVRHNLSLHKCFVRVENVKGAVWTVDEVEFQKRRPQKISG
# T6 sequence 2: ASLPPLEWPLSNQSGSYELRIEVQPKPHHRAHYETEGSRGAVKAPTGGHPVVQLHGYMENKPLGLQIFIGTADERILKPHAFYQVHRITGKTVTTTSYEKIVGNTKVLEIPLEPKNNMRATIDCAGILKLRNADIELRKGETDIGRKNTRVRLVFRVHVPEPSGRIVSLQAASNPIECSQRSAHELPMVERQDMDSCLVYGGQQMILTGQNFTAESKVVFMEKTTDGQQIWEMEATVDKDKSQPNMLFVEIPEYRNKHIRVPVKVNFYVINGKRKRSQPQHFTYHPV
# Assays:
# [1] = molecular target: T1, MBP-FoxP3dN;NFAT1 DBD; assay: pull-down; optimal NFAT cooperativity; Pull-down: 20 mM Tris-HCl pH 7.5, 100 mM NaCl, 1.5 mM MgCl2, room temperature, 0.4 uM MBP protein, 0.1 uM DNA (NFAT 0.2 uM); EMSA: 20 mM HEPES pH 7.5, 150 mM NaCl, 1.5 mM MgCl2, 2 mM DTT, 4 C, 0.2 uM DNA (RBR-FKH 0.8 uM, NFAT 0.4 uM); conditions: protein: recombinant;recombinant; tags: His6-MBP;none (His6-NusA cleaved); chain copies: 2;1; blunt
# [2] = molecular target: T2, MBP-FoxP3dN; assay: pull-down; comparable to IR-FKHM; Pull-down: 20 mM Tris-HCl pH 7.5, 100 mM NaCl, 1.5 mM MgCl2, room temperature, 0.4 uM MBP protein, 0.1 uM DNA (NFAT 0.2 uM); EMSA: 20 mM HEPES pH 7.5, 150 mM NaCl, 1.5 mM MgCl2, 2 mM DTT, 4 C, 0.2 uM DNA (RBR-FKH 0.8 uM, NFAT 0.4 uM); conditions: protein: recombinant; tags: His6-MBP; chain copies: 2; blunt
# Outline: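 0.4 µM MBP-tagged mouse FoxP3 fragment (plus 0.2 µM NFAT fragment where included) was mixed with 0.1 µM duplex DNA in Tris buffer with NaCl and MgCl2 at room temperature. Complexes were captured on amylose resin, and proteinase K-released DNA was run on 10% TBE gels stained with SYBR Gold. In a gel-shift arm, 0.2 µM DNA and protein were held 10 min at 4 °C in HEPES buffer, then run on native gels. Binding was judged qualitatively from gels.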
# [3] = molecular target: T3, FoxP3 RBR-FKH;NFAT1 DBD; assay: EMSA; monomer; Pull-down: 20 mM Tris-HCl pH 7.5, 100 mM NaCl, 1.5 mM MgCl2, room temperature, 0.4 uM MBP protein, 0.1 uM DNA (NFAT 0.2 uM); EMSA: 20 mM HEPES pH 7.5, 150 mM NaCl, 1.5 mM MgCl2, 2 mM DTT, 4 C, 0.2 uM DNA (RBR-FKH 0.8 uM, NFAT 0.4 uM); conditions: protein: recombinant;recombinant; tags: none (His6-NusA cleaved);none (His6-NusA cleaved); copies: 1;1; blunt
# [4] = molecular target: T4, FoxP1 RBR-FKH;NFAT1 DBD; assay: as above; conditions: protein: recombinant;recombinant; tags: none (His6-NusA cleaved);none (His6-NusA cleaved); copies: 1;1; blunt
# [5] = molecular target: T5, FoxP1RBR-FoxP3FKH;NFAT1 DBD; assay: as above; conditions: protein: recombinant;recombinant; tags: none (His6-NusA cleaved);none (His6-NusA cleaved); copies: 1;1; blunt
# [6] = molecular target: T6, FoxP3RBR-FoxP1FKH;NFAT1 DBD; assay: as above; conditions: protein: recombinant;recombinant; tags: none (His6-NusA cleaved);none (His6-NusA cleaved); chain copies: 2;1; blunt
# [7] = molecular target: T3, FoxP3 RBR-FKH;NFAT1 DBD; assay: EMSA; dimer; Pull-down: 20 mM Tris-HCl pH 7.5, 100 mM NaCl, 1.5 mM MgCl2, room temperature, 0.4 uM MBP protein, 0.1 uM DNA (NFAT 0.2 uM); EMSA: 20 mM HEPES pH 7.5, 150 mM NaCl, 1.5 mM MgCl2, 2 mM DTT, 4 C, 0.2 uM DNA (RBR-FKH 0.8 uM, NFAT 0.4 uM); conditions: protein: recombinant;recombinant; tags: none (His6-NusA cleaved);none (His6-NusA cleaved); copies: 1;1; blunt
# [8] = molecular target: T6, FoxP3RBR-FoxP1FKH;NFAT1 DBD; assay: as above; conditions: protein: recombinant;recombinant; tags: none (His6-NusA cleaved);none (His6-NusA cleaved); chain copies: 2;1; blunt
# [9] = molecular target: T1, MBP-FoxP3dN;NFAT1 DBD; assay: pull-down; NFAT enhances binding; Pull-down: 20 mM Tris-HCl pH 7.5, 100 mM NaCl, 1.5 mM MgCl2, room temperature, 0.4 uM MBP protein, 0.1 uM DNA (NFAT 0.2 uM); EMSA: 20 mM HEPES pH 7.5, 150 mM NaCl, 1.5 mM MgCl2, 2 mM DTT, 4 C, 0.2 uM DNA (RBR-FKH 0.8 uM, NFAT 0.4 uM); conditions: protein: recombinant;recombinant; tags: His6-MBP;none (His6-NusA cleaved); chain copies: 2;1; blunt
# [10] = molecular target: T2, MBP-FoxP3dN; assay: pull-down; Pull-down: 20 mM Tris-HCl pH 7.5, 100 mM NaCl, 1.5 mM MgCl2, room temperature, 0.4 uM MBP protein, 0.1 uM DNA (NFAT 0.2 uM); EMSA: 20 mM HEPES pH 7.5, 150 mM NaCl, 1.5 mM MgCl2, 2 mM DTT, 4 C, 0.2 uM DNA (RBR-FKH 0.8 uM, NFAT 0.4 uM); conditions: protein: recombinant; tags: His6-MBP; chain copies: 2; blunt
binder,measurement,setting,value
Var7 (dsDNA) DNA 1: TTAGGAAATTTGTGCATTCGAGTAAACAAATTT DNA 2: AAATTTGTTTACTCGAATGCACAAATTTCCTAA,binding result,[1],binds
DNA 1 (Fig S1F) (dsDNA) DNA 1: AATTTGCGCATCTCGAGTAAACAAATTT DNA 2: AAATTTGTTTACTCGAGATGCGCAAATT,binding result,[2],binds
DNA 8 (Fig S1F) (dsDNA) DNA 1: AATTTGTGTTGTTCGAGTAAACAAATTT DNA 2: AAATTTGTTTACTCGAACAACACAAATT,binding result,[2],binds
DNA 7 (Fig S1F) (dsDNA) DNA 1: AATTTGCCGCATTCGAGTAAACAAATTT DNA 2: AAATTTGTTTACTCGAATGCGGCAAATT,binding result,[2],binds
DNA2 (NFAT sFKHM) (dsDNA) DNA 1: TTAGGAAAATTTGTTTACTCCTCGCGGCAAA DNA 2: TTTGCCGCGAGGAGTAAACAAATTTTCCTAA,binding result,[3],binds
same,binding result,[4],binds
same,binding result,[5],binds
same,binding result,[6],binds
DNA 6 (Fig S1F) (dsDNA) DNA 1: AATTTGCGCATTTCGAGTAAACAAATTT DNA 2: AAATTTGTTTACTCGAAATGCGCAAATT,binding result,[2],binds
DNA 5 (Fig S1F) (dsDNA) DNA 1: AATTTGTGTTTATCGAGTAAACAAATTT DNA 2: AAATTTGTTTACTCGATAAACACAAATT,binding result,[2],binds
DNA 9 (Fig S1F) (dsDNA) DNA 1: AATTTGTGCATCTCGAGTAAACAAATTT DNA 2: AAATTTGTTTACTCGAGATGCACAAATT,binding result,[2],binds
DNA 3 (Fig S1F) (dsDNA) DNA 1: AATTTTGTGCATTCGAGTAAACAAATTT DNA 2: AAATTTGTTTACTCGAATGCACAAAATT,binding result,[2],binds
DNA1 (NFAT IR-FKHM) (dsDNA) DNA 1: TTAGGAAAATTTGTTTACTCGAGTAAACAAA DNA 2: TTTGTTTACTCGAGTAAACAAATTTTCCTAA,binding result,[4],binds
same,binding result,[5],binds
same,binding result,[7],binds
same,binding result,[8],binds
Var2 (dsDNA) DNA 1: TTAGGAAATTTGCGCATCTCGAGTAAACAAATTT DNA 2: AAATTTGTTTACTCGAGATGCGCAAATTTCCTAA,binding result,[9],binds
DNA 10 (Fig S1F) (dsDNA) DNA 1: AATTTGTTGCATTCGAGTAAACAAATTT DNA 2: AAATTTGTTTACTCGAATGCAACAAATT,binding result,[2],binds
DNA 2 (Fig S1F) (dsDNA) DNA 1: AATTTTGTTGTGTCGAGTAAACAAATTT DNA 2: AAATTTGTTTACTCGACACAACAAAATT,binding result,[2],binds
IR-FKHM (Fig 1C) (dsDNA) DNA 1: TAGGAAAATTTGTTTACTCGAGTAAACATC DNA 2: GATGTTTACTCGAGTAAACAAATTTTCCTA,binding result,[10],binds
DNA 4 (Fig S1F) (dsDNA) DNA 1: AATTTTGTTTATTCGAGTAAACAAATTT DNA 2: AAATTTGTTTACTCGAATAAACAAAATT,binding result,[2],binds
